From patent US20250121002A1 (NOILE IMMUNE BIOTECH, published 2025)
Where a chain is given by its changes, count along the chain named.

B1: third generation anti-EGFRviiiCAR with scFv S#026 VL25VH (SG) of the 1B10-1A12 clone, on PRIME EGFRviii CAR-T cells (other)
chain: DVVMTQTPLSLPVSLEDQASISCRSSQSLVHSSGKTYLQWYLQKPGQSPKLLIYSVSNRFSGVPDRFSGSGSGRDFTLKISRVEAEDLGVYFCSQSTHVPWTFGGGTKLEIKSSADDAKKDAAKKDDAKKDDAKKDGQVTLKESGPGILQPSQTLSLTCSFSGFSLSTSGMGVSWIRQPSGKGLEWLAHIFWDDDKRYNPSLKSRLTISKDTSTNQVFLKITSVDTADTATYYCARNYGFDVWGAGTTVTVSS
notes: also called PRIME EGFRviii CAR-T cells based on the 1B10-1A12 clone; not shown: rest of the third generation CAR: human CD8 transmembrane region and human CD28-4-1BB-CD3zeta intracellular signal trans
B2: anti-EGFRviiiCAR with VL25VH (SG) type scFv based on the 2H9-1B5 clone, on PRIME EGFRviii CAR-T cells (other)
chain: B1 chain with M4V, Q27R, S81N, F161L, F191Y, K196T, S204R
notes: also called PRIME EGFRviii CAR-T cells based on the 2H9-1B5 clone; not shown: rest of the CAR, produced 'in a manner similar to that based on the 1B10-1A12 clone' (third generation: CD8 transmembran)
B3: anti-EGFRviiiCAR with VL25VH (SG) type scFv based on the 3C2-1B10 clone, on PRIME EGFRviii CAR-T cells (other)
chain: DVVVTQTPLSLPVSLGDQASISCRSSQSLVHSSGITYLQWYLQKPGQSPKLLIYKVSTRFSGVPDRFSGSGSGTDFTLRISRVEAEELGVYFCSQSTHIPWTFGGGTKLEIKSSADDAKKDAAKKDDAKKDDAKKDGQVTLKESGPGILQPSQTLSLACSFSGFSLSTSGMGVSWIRQPSGKGLEWLAHIYWDDDRRYNPSLKSRLTISRDTSSNQVFLRITSVDTADTATYYCARNYGFDVWGAGTTVTVSS
notes: also called PRIME EGFRviii CAR-T cells based on the 3C2-1B10 clone; not shown: rest of the CAR, produced 'in a manner similar to that based on the 1B10-1A12 clone' (third generation: CD8 transmembran)

Target: T1, recombinant EGFRviii protein (UniProt P00533 25-645)
T1 construct: EGFRviii is a deletion variant of it; The construct is not described
Assay: flow cytometry; CAR-T cells stained with recombinant EGFRviii protein
From the text: CytoFLEX S (manufactured by Beckman Coulter, Inc.) was used as the flow cytometer, and FlowJo software (manufactured by Tree Star, Inc.) was used for data analysis.

Binder	flow cytometer measurement result (percent of cells stained with recombinant EGFRviii protein)
B1	32.4%
B2	3.6%
B3	1.4%
